Test system: mutant form of α-Gal A expressed in HEK-293 cells
Experiment: HEK assay (GLP HEK / Migalastat Amenability Assay): α-Gal A activity in lysates of transiently transfected HEK-293 cells incubated with or without 10 μM migalastat
Assay type: cell-based, human
Conditions: for Absolute increase (% WT): 10 μM migalastat versus baseline; for Relative increase: 10 μM migalastat α-Gal A activity relative to baseline; for 10 μM migalastat α-Gal A activity (% WT): 5 days; for 10 μM migalastat α-Gal A activity (% WT) / Baseline α-Gal A activity (% WT): percentage of baseline wild-type α-Gal A activity; for 10 μM migalastat α-Gal A activity (% WT) / Baseline α-Gal A activity (% WT) / Baseline α-Gal A activity / 10 μM migalastat α-Gal A activity: mean ± SEM; for Baseline α-Gal A activity (% WT): absence of migalastat; for Baseline α-Gal A activity / 10 μM migalastat α-Gal A activity: lysates of HEK-293 cells transfected with the mutant form; for Baseline α-Gal A activity: incubated 5 days in the absence of migalastat; for 10 μM migalastat α-Gal A activity: incubated 5 days with 10 μM migalastat
Outline: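 HEK-293 cells transiently transfected with mutant α-Gal A and incubated with or without 10 μM migalastat; lysate activity given as nmol free 4-MU released per mg protein per hour. Values are mean±SEM.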

Molecule | Absolute increase (% WT) | Relative increase | 10 μM migalastat α-Gal A activity (% WT) | Baseline α-Gal A activity (% WT) | Baseline α-Gal A activity | 10 μM migalastat α-Gal A activity
K185Q (protein) MQLRNPELHLGCALALRFLALVSWDIPGARALDNGLARTPTMGWLHWERFMCNLDCQEEPDSCISEKLFMEMAELMVSEGWKDAGYEYLCIDDCWMAPQRDSEGRLQADPQRFPHGIRQLANYVHSKGLKLGIYADVGNKTCAGFPGSFGYYDIDAQTFADWGVDLLKFDGCYCDSLENLADGYQHMSLALNRTGRSIVYSCEWPLYMWPFQKPNYTEIRQYCNHWRNFADIDDSWKSIKSILDWTSFNQERIVDVAGPGGWNDPDMLVIGNFGLSWNQQVTQMALWAIMAAPLFMSNDLRHISPQAKALLQDKDVIAINQDPLGKQGYQLRQGDNFEVWERPLSGLAWAVAMINRQEIGGPRSYTIAVASLGKGVACNPACFITQLLPVKRKLGFYEWTSRLRSHINPTGTVLLQLENTMQMSLKDLL | 30.9 % WT | 1.7 | 74.5 ± 2.9 % WT | 43.6 ± 2.2 % WT | 14992 ± 947 nmol/mg/h | 25543 ± 1463 nmol/mg/h
H186N (protein) MQLRNPELHLGCALALRFLALVSWDIPGARALDNGLARTPTMGWLHWERFMCNLDCQEEPDSCISEKLFMEMAELMVSEGWKDAGYEYLCIDDCWMAPQRDSEGRLQADPQRFPHGIRQLANYVHSKGLKLGIYADVGNKTCAGFPGSFGYYDIDAQTFADWGVDLLKFDGCYCDSLENLADGYKNMSLALNRTGRSIVYSCEWPLYMWPFQKPNYTEIRQYCNHWRNFADIDDSWKSIKSILDWTSFNQERIVDVAGPGGWNDPDMLVIGNFGLSWNQQVTQMALWAIMAAPLFMSNDLRHISPQAKALLQDKDVIAINQDPLGKQGYQLRQGDNFEVWERPLSGLAWAVAMINRQEIGGPRSYTIAVASLGKGVACNPACFITQLLPVKRKLGFYEWTSRLRSHINPTGTVLLQLENTMQMSLKDLL | 26.8 % WT | 1.4 | 90.3 ± 5.8 % WT | 63.5 ± 3.1 % WT | 28175 ± 1462 nmol/mg/h | 39509 ± 1885 nmol/mg/h
K185T (protein) MQLRNPELHLGCALALRFLALVSWDIPGARALDNGLARTPTMGWLHWERFMCNLDCQEEPDSCISEKLFMEMAELMVSEGWKDAGYEYLCIDDCWMAPQRDSEGRLQADPQRFPHGIRQLANYVHSKGLKLGIYADVGNKTCAGFPGSFGYYDIDAQTFADWGVDLLKFDGCYCDSLENLADGYTHMSLALNRTGRSIVYSCEWPLYMWPFQKPNYTEIRQYCNHWRNFADIDDSWKSIKSILDWTSFNQERIVDVAGPGGWNDPDMLVIGNFGLSWNQQVTQMALWAIMAAPLFMSNDLRHISPQAKALLQDKDVIAINQDPLGKQGYQLRQGDNFEVWERPLSGLAWAVAMINRQEIGGPRSYTIAVASLGKGVACNPACFITQLLPVKRKLGFYEWTSRLRSHINPTGTVLLQLENTMQMSLKDLL | 19.0 % WT | 1.2 | 92.6 ± 7.8 % WT | 73.6 ± 4.4 % WT | 32028 ± 1167 nmol/mg/h | 39805 ± 2259 nmol/mg/h
H186D (protein) MQLRNPELHLGCALALRFLALVSWDIPGARALDNGLARTPTMGWLHWERFMCNLDCQEEPDSCISEKLFMEMAELMVSEGWKDAGYEYLCIDDCWMAPQRDSEGRLQADPQRFPHGIRQLANYVHSKGLKLGIYADVGNKTCAGFPGSFGYYDIDAQTFADWGVDLLKFDGCYCDSLENLADGYKDMSLALNRTGRSIVYSCEWPLYMWPFQKPNYTEIRQYCNHWRNFADIDDSWKSIKSILDWTSFNQERIVDVAGPGGWNDPDMLVIGNFGLSWNQQVTQMALWAIMAAPLFMSNDLRHISPQAKALLQDKDVIAINQDPLGKQGYQLRQGDNFEVWERPLSGLAWAVAMINRQEIGGPRSYTIAVASLGKGVACNPACFITQLLPVKRKLGFYEWTSRLRSHINPTGTVLLQLENTMQMSLKDLL | 18.2 % WT | 1.3 | 78.2 ± 5.2 % WT | 60 ± 4.1 % WT | 26924 ± 2047 nmol/mg/h | 34055 ± 1657 nmol/mg/h
M187L (protein) MQLRNPELHLGCALALRFLALVSWDIPGARALDNGLARTPTMGWLHWERFMCNLDCQEEPDSCISEKLFMEMAELMVSEGWKDAGYEYLCIDDCWMAPQRDSEGRLQADPQRFPHGIRQLANYVHSKGLKLGIYADVGNKTCAGFPGSFGYYDIDAQTFADWGVDLLKFDGCYCDSLENLADGYKHLSLALNRTGRSIVYSCEWPLYMWPFQKPNYTEIRQYCNHWRNFADIDDSWKSIKSILDWTSFNQERIVDVAGPGGWNDPDMLVIGNFGLSWNQQVTQMALWAIMAAPLFMSNDLRHISPQAKALLQDKDVIAINQDPLGKQGYQLRQGDNFEVWERPLSGLAWAVAMINRQEIGGPRSYTIAVASLGKGVACNPACFITQLLPVKRKLGFYEWTSRLRSHINPTGTVLLQLENTMQMSLKDLL | 29.2 % WT | 6.7 | 34.5 ± 1.9 % WT | 5.3 ± 0.2 % WT | 1924 ± 64 nmol/mg/h | 12810 ± 929 nmol/mg/h
S188A (protein) MQLRNPELHLGCALALRFLALVSWDIPGARALDNGLARTPTMGWLHWERFMCNLDCQEEPDSCISEKLFMEMAELMVSEGWKDAGYEYLCIDDCWMAPQRDSEGRLQADPQRFPHGIRQLANYVHSKGLKLGIYADVGNKTCAGFPGSFGYYDIDAQTFADWGVDLLKFDGCYCDSLENLADGYKHMALALNRTGRSIVYSCEWPLYMWPFQKPNYTEIRQYCNHWRNFADIDDSWKSIKSILDWTSFNQERIVDVAGPGGWNDPDMLVIGNFGLSWNQQVTQMALWAIMAAPLFMSNDLRHISPQAKALLQDKDVIAINQDPLGKQGYQLRQGDNFEVWERPLSGLAWAVAMINRQEIGGPRSYTIAVASLGKGVACNPACFITQLLPVKRKLGFYEWTSRLRSHINPTGTVLLQLENTMQMSLKDLL | 25.7 % WT | 1.4 | 86.3 ± 4.9 % WT | 60.6 ± 4 % WT | 22589 ± 1833 nmol/mg/h | 32197 ± 2515 nmol/mg/h
H186Q (protein) MQLRNPELHLGCALALRFLALVSWDIPGARALDNGLARTPTMGWLHWERFMCNLDCQEEPDSCISEKLFMEMAELMVSEGWKDAGYEYLCIDDCWMAPQRDSEGRLQADPQRFPHGIRQLANYVHSKGLKLGIYADVGNKTCAGFPGSFGYYDIDAQTFADWGVDLLKFDGCYCDSLENLADGYKQMSLALNRTGRSIVYSCEWPLYMWPFQKPNYTEIRQYCNHWRNFADIDDSWKSIKSILDWTSFNQERIVDVAGPGGWNDPDMLVIGNFGLSWNQQVTQMALWAIMAAPLFMSNDLRHISPQAKALLQDKDVIAINQDPLGKQGYQLRQGDNFEVWERPLSGLAWAVAMINRQEIGGPRSYTIAVASLGKGVACNPACFITQLLPVKRKLGFYEWTSRLRSHINPTGTVLLQLENTMQMSLKDLL | 28.5 % WT | 1.4 | 105.3 ± 7 % WT | 76.9 ± 4.3 % WT | 28845 ± 2365 nmol/mg/h | 38865 ± 2966 nmol/mg/h
H186L (protein) MQLRNPELHLGCALALRFLALVSWDIPGARALDNGLARTPTMGWLHWERFMCNLDCQEEPDSCISEKLFMEMAELMVSEGWKDAGYEYLCIDDCWMAPQRDSEGRLQADPQRFPHGIRQLANYVHSKGLKLGIYADVGNKTCAGFPGSFGYYDIDAQTFADWGVDLLKFDGCYCDSLENLADGYKLMSLALNRTGRSIVYSCEWPLYMWPFQKPNYTEIRQYCNHWRNFADIDDSWKSIKSILDWTSFNQERIVDVAGPGGWNDPDMLVIGNFGLSWNQQVTQMALWAIMAAPLFMSNDLRHISPQAKALLQDKDVIAINQDPLGKQGYQLRQGDNFEVWERPLSGLAWAVAMINRQEIGGPRSYTIAVASLGKGVACNPACFITQLLPVKRKLGFYEWTSRLRSHINPTGTVLLQLENTMQMSLKDLL | 27.1 % WT | 1.3 | 97.5 ± 8.2 % WT | 70.4 ± 3.4 % WT | 31615 ± 1833 nmol/mg/h | 42145 ± 2540 nmol/mg/h
H186Y (protein) MQLRNPELHLGCALALRFLALVSWDIPGARALDNGLARTPTMGWLHWERFMCNLDCQEEPDSCISEKLFMEMAELMVSEGWKDAGYEYLCIDDCWMAPQRDSEGRLQADPQRFPHGIRQLANYVHSKGLKLGIYADVGNKTCAGFPGSFGYYDIDAQTFADWGVDLLKFDGCYCDSLENLADGYKYMSLALNRTGRSIVYSCEWPLYMWPFQKPNYTEIRQYCNHWRNFADIDDSWKSIKSILDWTSFNQERIVDVAGPGGWNDPDMLVIGNFGLSWNQQVTQMALWAIMAAPLFMSNDLRHISPQAKALLQDKDVIAINQDPLGKQGYQLRQGDNFEVWERPLSGLAWAVAMINRQEIGGPRSYTIAVASLGKGVACNPACFITQLLPVKRKLGFYEWTSRLRSHINPTGTVLLQLENTMQMSLKDLL | 39.8 % WT | 1.4 | 123.6 ± 8.9 % WT | 83.8 ± 4.5 % WT | 37644 ± 2421 nmol/mg/h | 53613 ± 2581 nmol/mg/h
